Source: patent US12297272B2, “IgG Fc variants for veterinary use” (Elanco US Inc., priority 2017, dated 2025)
Changes are numbered by the printed parent chain. Read-outs that look alike come from different tables or passages of the source.

B1: feline IgG2 Fc: wild-type feline IgG2 Fc polypeptide (protein)
chain: PKTASTIESKTGEGPKCPVPEIPGAPSVFIFPPKPKDTLSISRTPEVTCLVVDLGPDDSNVQITWFVDNTEMHTAKTRPREEQFNSTYRVVSVLPILHQDWLKGKEFKCKVNSKSLPSAMERTISKAKGQPHEPQVYVLPPTQEELSENKVSVTCLIKGFHPPDIAVEWEITGQPEPENNYQTTPPQLDSDGTYFLYSRLSVDRSHWQRGNTYTCSVSHEALHSHHTQKSLTQSPGK
modifications: Wild-type feline IgG2 Fc, Protein A +, C1q -
notes: wild-type feline IgG2 Fc polypeptide
B2: canine IgG-B Fc: wild-type canine IgG-B Fc polypeptide (protein)
chain: PAPEMLGGPSVFIFPPKPKDTLLIARTPEVTCVVVDLDPEDPEVQISWFVDGKQMQTAKTQPREEQFNGTYRVVSVLPIGHQDWLKGKQFTCKVNNKALPSPIERTISKARGQAHQPSVYVLPPSREELSKNTVSLTCLIKDFFPPDIDVEWQSNGQQEPESKYRTTPPQLDEDGSYFLYSKLSVDKSRWQRGDTFICAVMHEALHNHYTQESLSHSPGK
modifications: Wild-type canine IgG-B Fc , Protein A +, C1q +, CD16 +
notes: wild-type canine IgG-B Fc polypeptide
B3: GLP1-G8_I_WTfeIgG2: Formula I contiguous polypeptide: GLP1-G8 (7-35), flexible linker, wildtype feline IgG2 Fc (protein)
chain: HGEGTFTSDVSSYLEGQAAKEFIAWLVKGGGGSGGGGSGGGGSGGGGSPKTASTIESKTGEGPKCPVPEIPGAPSVFIFPPKPKDTLSISRTPEVTCLVVDLGPDDSNVQITWFVDNTEMHTAKTRPREEQFNSTYRVVSVLPILHQDWLKGKEFKCKVNSKSLPSAMERTISKAKGQPHEPQVYVLPPTQEELSENKVSVTCLIKGFHPPDIAVEWEITGQPEPENNYQTTPPQLDSDGTYFLYSRLSVDRSHWQRGNTYTCSVSHEALHSHHTQKSLTQSPGK
modifications: Synthetic GLP1-G8_I_WTfeIgG2
notes: Formula I contiguous polypeptide: GLP1-G8 (7-35), flexible linker, wildtype feline IgG2 Fc
B4: equine IgG5 Fc: wild-type equine IgG5 Fc polypeptide (protein)
chain: GGPSVFIFPPKPKDVLMISRKPEVTCVVVDLGHDDPDVQFTWFVDGVETHTATTEPKEEQFNSTYRVVSVLPIQHQDWLSGKEFKCSVTSKALPAPVERTISKAKGQLRVPQVYVLAPHPDELAKNTVSVTCLVKDFYPPEIDVEWQSNEHPEPEGKYSTTPAQLNSDGSYFLYSKLSVETSRWKQGESFTCGVMHEAVENHYTQKNVSHSPGK
modifications: Wild-type equine IgG5 Fc, Protein A -, C1q -
notes: wild-type equine IgG5 Fc polypeptide
B5: feline IgG1a Fc: wild-type feline IgG1a Fc polypeptide (protein)
chain 1: RKTDHPPGPKTGEGPKCPPPEMLGGPSIFIFPPKPKDTLSISRTPEVTCLVVDLGPDDSDVQITWFVDNTQVYTAKTSPREEQFNSTYRVVSVLPILHQDWLKGKEFKCKVNSKSLPSPIERTISKAKGQPHEPQVYVLPPAQEELSENKVSVTCLIKSFHPPDIAVEWEITGQPEPENNYRTTPPQLDSDGTYFVYSKLSVDRSHWQRGNTYTCSVSHEALHSHHTQKSLTQSPGK
chain 2: B5 chain 1 with T11P, G12C, E13D, G14C
modifications: Alternative wild-type feline IgG1a Fc, Protein A +, C1q +; Wild-type feline IgG1a Fc, Protein A +, C1q +
notes: wild-type feline IgG1a Fc polypeptide
B6: feline IgG1b Fc: wild-type feline IgG1b Fc polypeptide (protein)
chain 1: B5 chain 1 with A127D, K158E, S159G, H161Y, P163S, V196L, K199R, H206R
chain 2: RKTDHPPGPKPCDCPKCPPPEMLGGPSIFIFPPKPKDTLSISRTPEVTCLVVDLGPDDSDVQITWFVDNTQVYTAKTSPREEQFNSTYRVVSVLPILHQDWLKGKEFKCKVNSKSLPSPIERTISKDKGQPHEPQVYVLPPAQEELSENKVSVTCLIEGFYPSDIAVEWEITGQPEPENNYRTTPPQLDSDGTYFLYSRLSVDRSRWQRGNTYTCSVSHEALHSHHTQKSLTQSPGK
modifications: Alternative wild-type feline IgG1b Fc, Protein A +, C1q +; Wild-type feline IgG1b Fc, Protein A +, C1q +
notes: wild-type feline IgG1b Fc polypeptide
B7: GLP1-G8/GLP1-2G_III_VARfeIgG2: Formula III GLP1 contiguous polypeptide comprising variant feline IgG2 Fc of SEQ ID NO: 17 (Gly to Cys at position 14) (protein)
chain: HGEGTFTSDVSSYLEGQAAKEFIAWLVKGGGGSGGGGSGGGGSGGGGSPKTASTIESKTGECPKCPVPEIPGAPSVFIFPPKPKDTLSISRTPEVTCLVVDLGPDDSNVQITWFVDNTEMHTAKTRPREEQFNSTYRVVSVLPILHQDWLKGKEFKCKVNSKSLPSAMERTISKAKGQPHEPQVYVLPPTQEELSENKVSVTCLIKGFHPPDIAVEWEITGQPEPENNYQTTPPQLDSDGTYFLYSRLSVDRSHWQRGNTYTCSVSHEALHSHHTQKSLTQSPGKGGGGSGGGGHAEGTFTSDVSSYLEGQAAKEFIAWLVKGGG
modifications: Synthetic GLP1-G8/GLP1-2G_III_ VARfeIgG2
B8: GLP1-G8/GLP1-2G_III_WTfeIgG2: Formula III contiguous polypeptide: GLP1-G8 (7-35), GLP1 (7-35), two flexible linkers, 2G C-terminal extension, wildtype feline IgG2 Fc (protein)
chain: B7 chain with C62G
modifications: Synthetic GLP1-G8/GLP-2G_III_ WTfeIgG2
notes: Formula III contiguous polypeptide: GLP1-G8 (7-35), GLP1 (7-35), two flexible linkers, 2G C-terminal extension, wildtype feline IgG2 Fc
B9: equine IgG6 Fc: wild-type equine IgG6 Fc polypeptide (protein)
chain: GRPSVFIFPPNPKDTLMISRTPEVTCVVVDVSQENPDVKFNWYVDGVEAHTATTKAKEKQDNSTYRVVSVLPIQHQDWRRGKEFKCKVNNRALPAPVERTITKAKGELQDPQVYILAPHPDEVTKNTVSVTCLVKDFYPPDINVEWQSNEEPEPEVKYSTTPAQLDGDGSYFLYSKLTVETDRWEQGESFTCVVMHEAIRHTYRQKSITNFPGK
modifications: Wild-type equine IgG6 Fc, Protein A -, C1q -
notes: wild-type equine IgG6 Fc polypeptide
B10: canine IgG-A Fc: wild-type canine IgG-A Fc polypeptide (protein)
chain: PVPEPLGGPSVLIFPPKPKDILRITRTPEVTCVVLDLGREDPEVQISWFVDGKEVHTAKTQSREQQFNGTYRVVSVLPIEHQDWLTGKEFKCRVNHIDLPSPIERTISKARGRAHKPSVYVLPPSPKELSSSDTVSITCLIKDFYPPDIDVEWQSNGQQEPERKHRMTPPQLDEDGSYFLYSKLSVDKSRWQQGDPFTCAVMHETLQNHYTDLSLSHSPGK
modifications: Wild-type canine IgG-A Fc , Protein A -, C1q -, CD16
notes: wild-type canine IgG-A Fc polypeptide

Columns and labels:
[1] = target: Protein A (Staphylococcus aureus, UniProt P38507)
Method: In some embodiments, the KD of an IgG Fc polypeptide, such as a variant IgG Fc polypeptide, to Protein A or to C1q or to CD16 is measured by using biolayer interferometry assays using a biosensor, such as an Octet® System (Pall ForteBio LLC, Fremont, CA) according to the supplier's instructions. In brief, biotinylated Protein A or C1q or CD16 is bound to the sensor tip and the association of IgG Fc polypeptide is monitored for a specified time or until steady state is reached. Dissociation may be monitored for a specified time or until steady state is reached. A buffer only blank curve is subtracted to correct for any drift. The data are fit to a 2:1 binding model using ForteBio data analysis software to determine association rate constant (kon), dissociation rate constant (koff), and the Kd. The equilibrium dissociation constant (KD) is calculated as the ratio of koff/kon. The term “kon” refers to the rate constant for association of a molecule X to its partner Y and the term “koff” refers to the rate constant for dissociation of a molecule X or partner Y from the molecule X/partner Y complex.
Binding analysis may be performed using an Octet biosensor. Briefly, the target molecule (e.g., Protein A, C1q, CD16, etc.) may be biotinylated and free unreacted biotin removed (e.g., by dialysis). The biotinylated target molecule is captured on streptavidin sensor tips. Association of the target molecule with various concentrations (e.g., 10 μg/mL) of IgG Fc polypeptide is monitored for a specified time or until steady state is reached. Dissociation is monitored for a specified time or until steady state is reached. A buffer only blank curve may be subtracted to correct for any drift. The data are fit to a 1:1 binding model using ForteBio™ data analysis software to determine the kon, koff, and the Kd.

[2] = target: C1q (Homo sapiens, UniProt P02745+P02746+P02747); assay: C1q binding of IgG Fc polypeptides (Octet biolayer interferometry described); on C1q binding: key: (−) denotes low or no measurable binding activity
C1q, sequence (P02745 23-245): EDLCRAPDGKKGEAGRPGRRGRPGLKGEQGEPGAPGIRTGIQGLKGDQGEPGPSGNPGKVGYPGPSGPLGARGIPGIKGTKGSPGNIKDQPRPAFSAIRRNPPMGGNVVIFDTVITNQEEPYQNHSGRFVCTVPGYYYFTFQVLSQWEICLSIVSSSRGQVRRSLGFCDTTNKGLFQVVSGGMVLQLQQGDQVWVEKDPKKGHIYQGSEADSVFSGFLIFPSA
C1q, sequence (P02746 28-253): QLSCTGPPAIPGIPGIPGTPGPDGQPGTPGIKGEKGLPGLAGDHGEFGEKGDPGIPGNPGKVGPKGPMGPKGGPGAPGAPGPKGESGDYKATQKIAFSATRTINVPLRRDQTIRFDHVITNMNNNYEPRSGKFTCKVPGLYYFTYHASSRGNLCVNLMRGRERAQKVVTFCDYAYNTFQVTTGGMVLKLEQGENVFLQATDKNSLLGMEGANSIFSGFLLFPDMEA
C1q, sequence (P02747 29-245): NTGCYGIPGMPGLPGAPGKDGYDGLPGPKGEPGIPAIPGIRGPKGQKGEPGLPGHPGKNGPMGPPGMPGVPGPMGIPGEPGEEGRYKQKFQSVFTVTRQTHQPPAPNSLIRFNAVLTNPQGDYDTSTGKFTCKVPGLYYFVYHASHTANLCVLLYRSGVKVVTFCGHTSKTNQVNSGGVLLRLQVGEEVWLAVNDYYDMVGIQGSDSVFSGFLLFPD
Excerpt: (§1) Binding analysis may be performed using an Octet biosensor.

[3] = target: CD16 (Homo sapiens, UniProt P08637); assay: CD16 binding of IgG Fc polypeptides (Octet biolayer interferometry described)
CD16, sequence (P08637 17-254): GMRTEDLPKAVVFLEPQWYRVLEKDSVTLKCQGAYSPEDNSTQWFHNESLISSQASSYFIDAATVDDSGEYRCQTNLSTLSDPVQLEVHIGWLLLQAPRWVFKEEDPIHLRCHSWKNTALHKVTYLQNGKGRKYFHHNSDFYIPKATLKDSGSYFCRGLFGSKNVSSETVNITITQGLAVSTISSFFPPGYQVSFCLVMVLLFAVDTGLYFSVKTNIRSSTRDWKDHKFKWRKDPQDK
Excerpt: as §1

[4] = Differential scanning fluorimetry, stability at various pH; format: physicochemical; conditions: n = 3, 10 μg construct
Excerpt: Furthermore, differential scanning fluorimetry was used to assess the stability of the contiguous polypeptides at various pH, as reflected by mean melting point temperature (n=3) (Table 9, below). The increased stability of the variant feline IgG2 hinge is most evident at pH 6.

Molecule	Protein A binding affinity [1]	binding affinity to C1q [2]	Mean Melting Point Temperature (Tm) ([4]; pH 6)	Mean Melting Point Temperature (Tm) ([4]; pH 7)	Mean Melting Point Temperature (Tm) ([4]; pH 8)	further results
B1	have Protein A binding affinity	weak or no measurable binding affinity to C1q				C1q Binding ([2]; Wild-type Feline IgG Fc): −
B2	has Protein A binding affinity	bind to C1q				CD16 binding activity [3]: have CD16 binding activity
B3			56.9 °C	59.9 °C	59 °C	Mean Melting Point Temperature (Tm) ([4]; pH 5): 48.5 °C
B4	weak or no measurable Protein A binding affinity	weak or no measurable binding affinity to C1q				Protein A Binding ([1]; Wild-type Equine IgG Fc): −; C1q Binding ([2]; Wild-type Equine IgG Fc): −
B5	have Protein A binding affinity	bind to C1q				
B6	have Protein A binding affinity	bind to C1q				
B7			56.9 °C	55 °C	52.5 °C	
B8			55.2 °C	55.7 °C	54.2 °C	
B9	weak or no measurable Protein A binding affinity	weak or no measurable binding affinity to C1q				Protein A Binding ([1]; Wild-type Equine IgG Fc): −; C1q Binding ([2]; Wild-type Equine IgG Fc): −
B10	weak or no measurable Protein A binding affinity	weak or no measurable binding affinity to C1q				Protein A Binding ([1]; Wild-type Canine IgG Fc): −; C1q Binding ([2]; Wild-type Canine IgG Fc): −; CD16 Binding ([3]; Wild-type Canine IgG Fc): −
